Laboratory results published in paper PMC11582362.

B1: full length ADAR1 p110, wild type (FLAG-tagged and HA-tagged copies) [human] / full length ADAR1 p110, wild type (FLAG-tagged and HA-tagged copies) [human] (parent)
chain 1: MAEIKEKICDYLFNVSDSSALNLAKNIGLTKARDINAVLIDMERQGDVYRQGTTPPIWHLTDKKRERMQIKRNTNSVPETAPAAIPETKRNAEFLTCNIPTSNASNNMVTTEKVENGQEPVIKLENRQEARPEPARLKPPVHYNGPSKAGYVDFENGQWATDDIPDDLNSIRAAPGEFRAIMEMPSFYSHGLPRCSPYKKLTECQLKNPISGLLEYAQFASQTCEFNMIEQSGPPHEPRFKFQVVINGREFPPAEAGSKKVAKQDAAMKAMTILLEEAKAKDSGKSEESSHYSTEKESEKTAESQTPTPSATSFFSGKSPVTTLLECMHKLGNSCEFRLLSKEGPAHEPKFQYCVAVGAQTFPSVSAPSKKVAKQMAAEEAMKALHGEATNSMASDNQPEGMISESLDNLESMMPNKVRKIGELVRYLNTNPVGGLLEYARSHGFAAEFKLVDQSGPPHEPKFVYQAKVGGRWFPAVCAHSKKQGKQEAADAALRVLIGENEKAERMGFTEVTPVTGASLRRTMLLLSRSPEAQPKTLPLTGSTFHDQIAMLSHRCFNTLTNSFQPSLLGRKILAAIIMKKDSEDMGVVVSLGTGNRCVKGDSLSLKGETVNDCHAEIISRRGFIRFLYSELMKYNSQTAKDSIFEPAKGGEKLQIKKTVSFHLYISTAPCGDGALFDKSCSDRAMESTESRHYPVFENPKQGKLRTKVENGEGTIPVESSDIVPTWDGIRLGERLRTMSCSDKILRWNVLGLQGALLTHFLQPIYLKSVTLGYLFSQGHLTRAICCRVTRDGSAFEDGLRHPFIVNHPKVGRVSIYDSKRQSGKTKETSVNWCLADGYDLEILDGTRGTVDGPRNELSRVSKKNIFLLFKKLCSFRYRRDLLRLSYGEAKKAARDYETAKNYFKKGLKDMGYGNWISKPQEEKNFYLCPV
chain 2: B1 chain 1

Variants of: B1
Experiment: co-immunoprecipitation (anti-FLAG IP, anti-HA western blot, bands quantified with ImageJ)
Settings: HEK293T cells, in the presence of RNases, n = 3, parent: 70, read off a plot

response [%]	Variant
11	chain 1 V452A D453Q W473V C478S
